Results taken from patent US20240101645A1 (HENRY M JACKSON FOUNDATION FOR THE ADVANCEMENT OF MILITARY …, published 2024).

Molecular target: SARS-CoV-1 S on pseudovirions (Sino 1-11, 28 amino acid C-terminal deletion) (SARS-CoV-1, UniProt P59594 14-1227)
Assay: cell-based or functional assay

B1: COV_2063 (antibody, V domains shown)
VH: EVQLVESGGGVVQPGRSLRLSCAASGFTFSSYGMHWVRQAPGKGLEWVAVIWYDGSNKYYADSVKGRFTISRDNSKNTLYLQMNSLRAEDTAVYYCARGPLGSNYFNYDAFDIWGQGTMVTVSS
VL: DVVMTQSPLSLPVTLGQPASISCRSSQSLEYSDGNTYLNWFQQRPGQSPRRLIYKVSKRDSGVPDRFSGSGSGSDFTLKISRVEAEDVGVYYCMQGTHWPLTFGGGTKVEIK
In the case of B1, the “IC50, SARS-CoV-1 pseudotyped neutralization” value is reported as 0.095 µg/mL.
